This note sets out measurements from US20110206660A1 (Ablynx, published 2011).

The target of test [1] is T1, human CXCR4 (human, UniProt P61073-2 2-356). Kind of test: competition binding vs [125I]-CXCL12, HEK293T-CXCR4 membranes.
In test [2] the target is T1, human CXCR4. Kind of test: competition binding vs [125I]-238D4, HEK293T-CXCR4 membranes.
The target in test [3] is T1, human CXCR4. Kind of test: competition binding vs [125I]-238D2, HEK293T-CXCR4 membranes.
For test [4], the target named is T1, human CXCR4. Kind of test: competition binding vs [125I]-CXCL12, HEK293T-CXCR4 membranes; purified Nanobody up to 0.5 µM, tracer [125I]-CXCL12.
The target in test [5] is T1, human CXCR4. As to the kind of experiment: periplasm fraction (1:10), inhibition of [125I]-CXCL12 binding, HEK293T-CXCR4 membranes; - = 0-29%, + = 30-69%, ++ = 70-100%; periplasma fraction in the clone screen, tracer [125I]-CXCL12; 30-69% inhibition.
For test [6], the target named is T1, human CXCR4. As to the kind of experiment: competition binding vs [125I]-238D2, HEK293T-CXCR4 membranes; purified Nanobody up to 0.5 µM, tracer [125I]-238D2.
Test [7] deals with T1, human CXCR4. Kind of test: competition binding vs [125I]-238D4, HEK293T-CXCR4 membranes; purified Nanobody up to 0.5 µM, tracer [125I]-238D4.
Test [8] deals with T1, human CXCR4. As to the kind of experiment: competition binding vs [125I]-CXCL12, HEK293T-CXCR4 membranes.
The target in test [9] is constitutively active CXCR4 mutant N119A (UniProt P61073 1-352). As to the kind of experiment: cell-based or functional assay.
Chain of constitutively active CXCR4 mutant N119A (P61073 whole entry N119A): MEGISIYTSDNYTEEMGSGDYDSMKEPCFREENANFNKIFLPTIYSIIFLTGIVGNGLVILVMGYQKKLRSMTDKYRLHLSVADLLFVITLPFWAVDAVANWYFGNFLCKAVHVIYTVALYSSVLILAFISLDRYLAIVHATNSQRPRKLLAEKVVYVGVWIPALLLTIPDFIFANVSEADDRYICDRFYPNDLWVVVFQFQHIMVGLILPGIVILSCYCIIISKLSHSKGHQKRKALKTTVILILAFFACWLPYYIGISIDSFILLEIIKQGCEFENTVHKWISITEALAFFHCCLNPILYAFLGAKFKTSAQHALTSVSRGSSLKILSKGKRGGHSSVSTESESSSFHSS
Test [10] has as its target T1, human CXCR4. As to the kind of experiment: competition binding vs [125I]-CXCL12, HEK293T-CXCR4 membranes. This is another data set of the same source.
Test [11] addresses T1, human CXCR4. As to the kind of experiment: cell-based or functional assay.
The target in test [12] is T1, human CXCR4. Kind of test: cell-based or functional assay. This is another data set of the same source.
Test [13] has as its target T2, CXCR3 (UniProt P49682 1-368).
T2 construct: whole, on cells; also called chemokine receptor CXCR3
T2 sequence (looked up): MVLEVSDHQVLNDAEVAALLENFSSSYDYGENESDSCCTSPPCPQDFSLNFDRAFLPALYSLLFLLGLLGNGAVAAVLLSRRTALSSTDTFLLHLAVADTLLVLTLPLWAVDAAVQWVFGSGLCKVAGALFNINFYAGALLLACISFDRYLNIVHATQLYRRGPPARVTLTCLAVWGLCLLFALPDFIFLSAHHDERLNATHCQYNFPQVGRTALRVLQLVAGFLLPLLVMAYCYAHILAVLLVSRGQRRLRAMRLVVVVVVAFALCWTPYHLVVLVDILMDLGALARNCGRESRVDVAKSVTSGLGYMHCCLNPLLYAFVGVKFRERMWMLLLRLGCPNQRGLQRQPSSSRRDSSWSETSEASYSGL
As to the kind of experiment: total binding of [125I]-238D4 to membranes of HEK293T cells expressing CXCR4 or CXCR3, without (-) and with 3 µM AMD3100.

For test [14], the target named is T1, human CXCR4. As to the kind of experiment: competition with [125I]-238D2, membranes of HEK293T cells expressing CXCR4.
The target of test [15] is T1, human CXCR4. As to the kind of experiment: competition with [125I]-CXCL12, membranes of HEK293T cells expressing CXCR4.
The target in test [16] is T1, human CXCR4. Kind of test: competition with [125I]-238D4, membranes of HEK293T cells expressing CXCR4.
Test [17] deals with T2, CXCR3. Kind of test: total binding of [125I]-238D2 to membranes of HEK293T cells expressing CXCR4 or CXCR3, without (-) and with 3 µM AMD3100.

T1 sequence (P61073 other isoform, or with tags, fused parts or gaps): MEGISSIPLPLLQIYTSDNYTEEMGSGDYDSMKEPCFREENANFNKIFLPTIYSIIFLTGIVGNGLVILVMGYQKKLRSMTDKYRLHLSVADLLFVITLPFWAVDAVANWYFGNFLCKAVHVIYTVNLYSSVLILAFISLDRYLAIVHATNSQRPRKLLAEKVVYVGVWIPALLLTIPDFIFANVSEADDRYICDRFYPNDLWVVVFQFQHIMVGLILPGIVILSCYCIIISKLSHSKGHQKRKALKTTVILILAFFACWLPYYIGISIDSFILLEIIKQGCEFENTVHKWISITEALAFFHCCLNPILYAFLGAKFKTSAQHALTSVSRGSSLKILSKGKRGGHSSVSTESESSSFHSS

For monoclonal antibody 12G5, the values for the maximal displacement with human CXCR4 [1], with human CXCR4 [2] and in the test with human CXCR4 [3] were 54%, 90% and 89%, respectively. Also, the pKi – broadly, −log10 of the Ki, conventionally taken in molar units – in the test with human CXCR4 [1] was determined as 9.19; with human CXCR4 [2], 9.31; with human CXCR4 [3], 9.65.

B1: Nanobody 237G7 (VHH)
VHH: EVQLVESGGGLVQPGGSLRLSCAASSFIGNYHAIVWLRQAPGKELEGVSCITSRDSITYYASFVKGRFTISRDDAKNTVYLQMNNLKPEDTAVYYCAVBTSMTCPTLIVRFNYRGQGTQVTVSS
notes: Monovalent VHH
For the molecule B1, the pKi with human CXCR4 [4], with human CXCR4 [6] and in the test with human CXCR4 [7] was < 6.3 each time. For the same molecule, the “percent inhibition of specific [125I]-CXCL12 binding” value (“percent inhibition of specific” below) with human CXCR4 [5] was 30 to 69%.

B2: 238D4-20GS-238D4 (VHH)
chain: EVQLMESGGGLVQAGGSLRLSCAASGRTFNNYAMGWFRRAPGKEREFVAAITRSGVRSGVSAIYGDSVKDRFTISRDNAKNTLYLQMNSLKPEDTAVYTCAASAIGSGALRRFEYDYSGQGTQVTVSSGGGGSGGGGSGGGGSGGGGSEVQLMESGGGLVQAGGSLRLSCAASGRTFNNYAMGWFRRAPGKEREFVAAITRSGVRSGVSAIYGDSVKDRFTISRDNAKNTLYLQMNSLKPEDTAVYTCAASAIGSGALRRFEYDYSGQGTQVTVSS
notes: Bivalent Nanobody, 20-residue GS linker; also called L13
B2: in the test with human CXCR4 [8], the “Rel. potency (relative to monovalent 238D4)” value came to 4.4 fold and the pKi was determined as 8.85.

B3: Nanobody 237D1 (VHH)
VHH: EVQLVESGGGLAQPGGPLRLTCEASGVIYSVNDMGWYRQAPGKQRELVAVITSGGGTNYVDSVKGRFTISGDNRKKTVYLQMNSLKPEDTAVYYCSIYYSSGISTLRSWGQGTQVTVSS
notes: Monovalent VHH
With B3, the pKi in the test with human CXCR4 [4], with human CXCR4 [6] and in the test with human CXCR4 [7] was < 6.3 each time. The “percent inhibition of specific” value in the test with human CXCR4 [5] was 30 to 69%.

B4: Nanobody 237A6 (VHH)
VHH: EVQLVESGGGLVQAGGSLRLSCAASGSIFSLNAMGWYRQAPGKQRELVAGITSSTSTYYADSVKGRFTISRDNTKNTVYLQMNSLKPEDTAVYYCNVDCPDYYSDYECPLEDRGQGTQVTVSS
notes: Monovalent VHH
Consider B4, for which the pKi with human CXCR4 [4], with human CXCR4 [6] and in the test with human CXCR4 [7] was < 6.3 throughout. Moreover, the “percent inhibition of specific” value with human CXCR4 [5] was in the range of 30 to 69%.

B5: 238D2-15GS-238D4 (VHH)
chain: EVQLVESGGGLVQTGGSLRLSCAASGFTFSSYAMSWVRQAPGKGLEWVSGIKSSGDSTRYAGSVKGRFTISRDNAKNMLYLQMYSLKPEDTAVYYCAKSRVSRTGLYTYDNRGQGTQVTVSSGGGGSGGGGSGGGGSEVQLMESGGGLVQAGGSLRLSCAASGRTFNNYAMGWFRRAPGKEREFVAAITRSGVRSGVSAIYGDSVKDRFTISRDNAKNTLYLQMNSLKPEDTAVYTCAASAIGSGALRRFEYDYSGQGTQVTVSS
For B5, the “reduction of the constitutively increased basal inositol phosphate accumulation, HEK293T-CXCR4 (N119A)” value in test [9] was found to be 64%.

B6: Nanobody 238C5 (VHH)
VHH: EVQLMESGGGLVQAGGSLRLACAASGFTFEDYAIGWFRKAPGKEREGVSCISGSDGSTTYADSVKGRFTISTDNAKNTVYLEMNSLKPEDTAVYYCAQQYGVGGRVVCPGPYEYDVWGQGTQVTVSS
notes: Monovalent VHH; also called 238C5, G2, xH5, 238C3, D6, E6
In the case of B6, the figures for the pKi with human CXCR4 [2], with human CXCR4 [3] and with human CXCR4 [10] were < 7, < 7 and < 6.3, respectively. The molecule further showed a maximal displacement with human CXCR4 [10] of 0%.

B7: 238D2-20GS-238D4 (VHH)
chain: EVQLVESGGGLVQTGGSLRLSCAASGFTFSSYAMSWVRQAPGKGLEWVSGIKSSGDSTRYAGSVKGRFTISRDNAKNMLYLQMYSLKPEDTAVYYCAKSRVSRTGLYTYDNRGQGTQVTVSSGGGGSGGGGSGGGGSGGGGSEVQLMESGGGLVQAGGSLRLSCAASGRTFNNYAMGWFRRAPGKEREFVAAITRSGVRSGVSAIYGDSVKDRFTISRDNAKNTLYLQMNSLKPEDTAVYTCAASAIGSGALRRFEYDYSGQGTQVTVSS
For the molecule B7, the “reduction of the constitutively increased basal inositol phosphate accumulation, HEK293T-CXCR4 (N119A)” value in test [9] stood at 65%.

B8: Nanobody 238D4 (VHH)
VHH: EVQLMESGGGLVQAGGSLRLSCAASGRTFNNYAMGWFRRAPGKEREFVAAITRSGVRSGVSAIYGDSVKDRFTISRDNAKNTLYLQMNSLKPEDTAVYTCAASAIGSGALRRFEYDYSGQGTQVTVSS
notes: Monovalent llama VHH; also called 238G3; 238D4, G3
For the molecule B8, the “CRE activation, HEK293T-CXCR4-CREbgal/0.01-100 nM CXCL12: pKi or pIC50 (pKB from the Schild plot by the text)” value with human CXCR4 [11] was found to be 7.7. Also, in the test with human CXCR4 [11], the “Chemotaxis, Jurkat/0.3 nM CXCL12: pKi or pIC50” value worked out at 8.31. Besides, in the test with human CXCR4 [11], the “IP accumulation, HEK293T-CXCR4-Gαqi5/30 nM CXCL12: pKi or pIC50” value was determined as 8.39. Further, the “reduction of the constitutively increased basal inositol phosphate accumulation, HEK293T-CXCR4 (N119A)” value in [9] turned out to be 49%. In addition, in the test with human CXCR4 [12], the “migration of Jurkat cells towards 0.3 nM CXCL12 (ChemoTx): IC50 (read off the curve)” value was ~8 nM. The pKi with human CXCR4 [2] came to 8.55; in the test with human CXCR4 [3], 8.8; with human CXCR4 [10], 8.22. Moreover, in the test with CXCR3 [13], the binding result was “no binding (tested: 3 nM)”. For the same molecule, the results for the “IC50 (read off the curve)” value with human CXCR4 [14], with human CXCR4 [15] and with human CXCR4 [16] were ~3 nM, ~10 nM and ~4 nM, respectively. Further, in the test with human CXCR4 [10], the maximal displacement worked out at 99%.

B9: Nanobody 238D2 (VHH)
VHH: EVQLVESGGGLVQTGGSLRLSCAASGFTFSSYAMSWVRQAPGKGLEWVSGIKSSGDSTRYAGSVKGRFTISRDNAKNMLYLQMYSLKPEDTAVYYCAKSRVSRTGLYTYDNRGQGTQVTVSS
notes: Monovalent llama VHH; Tested as phage, as periplasm fraction and purified; also called 238C1; 238C1, D2
As to B9, in the test with CXCR3 [17], the binding result was “no binding (tested: 3 nM)”.

B10: Nanobody 237D2 (VHH)
VHH: EVQLVESGGGLVQPGGSLRLSCAASGFTFDDYAMSWVRQAPGKGLEWVSAISWNGGSTDYADSVKGRFTISRDNAKNTLYLQMNSLKSEDTAEYYCARDQGPFYSGTYYYTRQYGYRGQGTQVTVSS
notes: Monovalent VHH; also called 237B6, A5, D2, D3, E4, F4, G2, G4, xH5, 237F1, C5, G1
Turning to B10, the pKi in the test with human CXCR4 [4], with human CXCR4 [6] and in the test with human CXCR4 [7] was < 6.3 in each case.
